The values that follow come from publication PMC7504222.

The target in the assay is C-X-C motif chemokine receptor 4 (CXCR4) (human (endogenous in primary CD4+ T cells)) (UniProt P61073).
UniProt P61073, sequence (P61073 whole entry): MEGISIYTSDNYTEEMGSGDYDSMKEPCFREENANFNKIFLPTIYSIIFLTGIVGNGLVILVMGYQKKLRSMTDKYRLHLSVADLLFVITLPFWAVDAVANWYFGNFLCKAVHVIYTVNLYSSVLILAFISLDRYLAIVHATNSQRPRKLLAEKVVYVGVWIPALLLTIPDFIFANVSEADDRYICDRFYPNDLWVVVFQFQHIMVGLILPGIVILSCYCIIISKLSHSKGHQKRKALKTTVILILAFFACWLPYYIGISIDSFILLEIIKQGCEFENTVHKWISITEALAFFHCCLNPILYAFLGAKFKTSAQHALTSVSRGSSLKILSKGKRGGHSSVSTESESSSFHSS

In turn, “stromal cell-derived factor-1 (SDF-1) (from UniProt P48061 22-93) (ligand)” had a median fluorescence intensity of MitoTracker Deep Red-labelled mitochondria on CD4+ T cells after 2 h co-culture, with 20 µg/mL blocking SDF-1 Ab; flow cytometry of 21.1 and a median fluorescence intensity of MitoTracker Deep Red-labelled mitochondria on CD4+ T cells after 2 h co-culture, without SDF-1 Ab; flow cytometry of 44.8.
